From US20220143024A1, “METHODS OF USING IMIPRIDONES” (Board of Regents, The University of Texas System, priority 2019, published 2022)

Assays:
Experiment in all cases: BioID-MS +ONC201
MPST (human) = MPST (human) (UniProt P25325)
PMPCA (human) = PMPCA (human) (UniProt Q10713)
ACO2 (human) = ACO2 (human) (UniProt Q99798)
PPIF (human) = PPIF (human) (UniProt P30405)
POLRMT (human) = POLRMT (human) (UniProt O00411)
LYRM7 (human) = LYRM7 (human) (UniProt Q5U5X0)
BCS1L (human) = BCS1L (human) (UniProt Q9Y276)
PDPR (human) = PDPR (human) (UniProt Q8NCN5)
MRPL48 (human) = MRPL48 (human) (UniProt Q96GC5)
NFS1 (human) = NFS1 (human) (UniProt Q9Y697)
NDUFA7 (human) = NDUFA7 (human) (UniProt O95182)
Chain of NDUFA7 (human) (O95182 2-113 limits assumed): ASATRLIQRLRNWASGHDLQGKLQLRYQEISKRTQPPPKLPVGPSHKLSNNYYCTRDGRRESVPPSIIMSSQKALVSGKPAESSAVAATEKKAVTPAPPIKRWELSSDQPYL

COX5A (human) = COX5A (human) (UniProt P20674)
Chain of COX5A (human) (P20674 42-150 limits assumed): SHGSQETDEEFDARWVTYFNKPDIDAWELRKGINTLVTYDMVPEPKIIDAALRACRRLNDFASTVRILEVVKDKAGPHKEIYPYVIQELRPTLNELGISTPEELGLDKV

PTPMT1 (human) = PTPMT1 (human) (UniProt Q8WUK0)
GCDH (human) = GCDH (human) (UniProt Q92947)
QRSL1 (human) = QRSL1 (human) (UniProt Q9H0R6)
ABCB10 (human) = ABCB10 (human) (UniProt Q9NRK6)
Chain of ABCB10 (human) (Q9NRK6 106-738 limits assumed): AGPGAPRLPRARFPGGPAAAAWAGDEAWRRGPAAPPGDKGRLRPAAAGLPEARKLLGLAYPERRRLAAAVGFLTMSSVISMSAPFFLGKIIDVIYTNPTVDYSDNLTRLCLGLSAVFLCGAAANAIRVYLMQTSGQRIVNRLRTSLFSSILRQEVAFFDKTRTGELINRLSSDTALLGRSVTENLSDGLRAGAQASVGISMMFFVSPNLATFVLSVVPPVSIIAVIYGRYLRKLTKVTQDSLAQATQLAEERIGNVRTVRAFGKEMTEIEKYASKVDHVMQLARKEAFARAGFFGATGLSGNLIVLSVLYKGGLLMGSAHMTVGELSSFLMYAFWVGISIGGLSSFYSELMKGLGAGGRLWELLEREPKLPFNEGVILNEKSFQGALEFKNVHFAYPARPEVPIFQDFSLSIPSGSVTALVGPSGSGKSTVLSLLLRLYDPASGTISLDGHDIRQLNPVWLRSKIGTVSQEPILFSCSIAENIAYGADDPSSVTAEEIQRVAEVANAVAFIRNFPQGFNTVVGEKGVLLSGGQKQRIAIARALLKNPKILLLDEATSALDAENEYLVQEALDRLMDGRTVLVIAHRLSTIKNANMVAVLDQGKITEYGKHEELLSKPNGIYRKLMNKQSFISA

ECHS1 (human) = ECHS1 (human) (UniProt P30084)
PNPT1 (human) = PNPT1 (human) (UniProt Q8TCS8)
GBAS (human) = GBAS (human) (UniProt O75323)
Chain of GBAS (human) (O75323 24-286 limits assumed): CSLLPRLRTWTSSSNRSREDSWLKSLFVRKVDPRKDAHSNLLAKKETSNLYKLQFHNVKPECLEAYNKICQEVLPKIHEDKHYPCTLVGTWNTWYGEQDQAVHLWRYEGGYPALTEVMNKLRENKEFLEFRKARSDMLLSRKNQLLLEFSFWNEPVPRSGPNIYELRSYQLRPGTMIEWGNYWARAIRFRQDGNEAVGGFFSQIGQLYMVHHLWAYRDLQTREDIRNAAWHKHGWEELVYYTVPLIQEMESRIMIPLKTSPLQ

ACAD9 (human) = ACAD9 (human) (UniProt Q9H845)
MRPS17 (human) = MRPS17 (human) (UniProt Q9Y2R5)
MRPS16 (human) = MRPS16 (human) (UniProt Q9Y3D3)
SPRYD4 (human) = SPRYD4 (human) (UniProt Q8WW59)
MRPL21 (human) = MRPL21 (human) (UniProt Q7Z2W9)
T1MM44 (human) = T1MM44 (human) (UniProt O43615)
HSD17B8 (human) = HSD17B8 (human) (UniProt Q92506)
GRSF1 (human) = GRSF1 (human) (UniProt Q12849)
CLYBL (human) = CLYBL (human) (UniProt Q8N0X4)
MRPS15 (human) = MRPS15 (human) (UniProt P82914)
ABHD10 (human) = ABHD10 (human) (UniProt Q9NUJ1)
Chain of ABHD10 (human) (Q9NUJ1 53-306 limits assumed): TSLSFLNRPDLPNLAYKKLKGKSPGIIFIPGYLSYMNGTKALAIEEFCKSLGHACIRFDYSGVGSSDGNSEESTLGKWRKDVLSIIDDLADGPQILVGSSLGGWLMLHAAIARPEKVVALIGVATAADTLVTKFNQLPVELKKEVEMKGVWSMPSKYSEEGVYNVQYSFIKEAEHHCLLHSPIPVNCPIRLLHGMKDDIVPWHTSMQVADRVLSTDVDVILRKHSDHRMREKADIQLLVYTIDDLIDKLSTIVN

MTRF1L (human) = MTRF1L (human) (UniProt Q9UGC7)
FMC1 (human) = FMC1 (human) (UniProt Q96HJ9)
Chain of FMC1 (human) (Q96HJ9 whole entry): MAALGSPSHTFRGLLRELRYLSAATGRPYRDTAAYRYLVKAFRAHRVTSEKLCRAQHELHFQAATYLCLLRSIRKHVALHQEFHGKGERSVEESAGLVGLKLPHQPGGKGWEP

MRPS28 (human) = MRPS28 (human) (UniProt Q9Y2Q9)
MTHFD1L (human) = MTHFD1L (human) (UniProt Q6UB35)
BCKDHB (human) = BCKDHB (human) (UniProt P21953)
NDUFS6 (human) = NDUFS6 (human) (UniProt O75380)
Chain of NDUFS6 (human) (O75380 29-124 limits assumed): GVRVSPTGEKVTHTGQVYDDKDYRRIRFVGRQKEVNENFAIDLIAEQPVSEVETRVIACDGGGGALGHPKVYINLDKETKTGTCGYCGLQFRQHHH

SUCLG2 (human) = SUCLG2 (human) (UniProt Q96I99)
Chain of SUCLG2 (human) (Q96I99 38-432 limits assumed): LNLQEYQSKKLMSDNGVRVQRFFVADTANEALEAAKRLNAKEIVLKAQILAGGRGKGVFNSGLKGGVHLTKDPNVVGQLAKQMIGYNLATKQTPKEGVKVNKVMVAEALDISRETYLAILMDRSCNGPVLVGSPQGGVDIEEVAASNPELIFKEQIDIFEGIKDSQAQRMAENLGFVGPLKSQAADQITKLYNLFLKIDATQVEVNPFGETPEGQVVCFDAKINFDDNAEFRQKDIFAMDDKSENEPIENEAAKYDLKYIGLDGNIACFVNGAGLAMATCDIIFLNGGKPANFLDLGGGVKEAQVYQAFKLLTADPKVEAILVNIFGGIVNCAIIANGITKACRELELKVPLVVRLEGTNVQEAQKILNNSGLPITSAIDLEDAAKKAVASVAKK

LETM1 (human) = LETM1 (human) (UniProt O95202)
Chain of LETM1 (human) (O95202 116-739 limits assumed): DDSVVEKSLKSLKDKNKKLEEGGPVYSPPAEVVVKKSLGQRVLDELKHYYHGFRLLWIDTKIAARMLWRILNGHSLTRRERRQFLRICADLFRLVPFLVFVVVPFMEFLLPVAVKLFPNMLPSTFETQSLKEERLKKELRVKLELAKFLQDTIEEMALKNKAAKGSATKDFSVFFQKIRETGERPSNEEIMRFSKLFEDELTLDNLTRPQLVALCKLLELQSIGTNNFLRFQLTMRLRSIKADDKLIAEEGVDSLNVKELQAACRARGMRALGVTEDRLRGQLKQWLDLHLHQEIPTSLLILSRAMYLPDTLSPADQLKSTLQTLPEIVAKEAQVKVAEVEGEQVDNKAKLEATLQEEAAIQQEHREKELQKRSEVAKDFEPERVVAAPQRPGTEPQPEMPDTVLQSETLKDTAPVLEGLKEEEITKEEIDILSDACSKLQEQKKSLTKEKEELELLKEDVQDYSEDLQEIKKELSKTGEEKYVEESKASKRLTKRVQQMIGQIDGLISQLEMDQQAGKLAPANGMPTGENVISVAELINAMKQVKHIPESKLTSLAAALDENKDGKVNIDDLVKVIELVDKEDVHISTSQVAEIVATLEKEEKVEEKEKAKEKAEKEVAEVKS

MRPS6 (human) = MRPS6 (human) (UniProt P82932)
FASTKD5 (human) = FASTKD5 (human) (UniProt Q7L8L6)
Chain of FASTKD5 (human) (Q7L8L6 28-764 limits assumed): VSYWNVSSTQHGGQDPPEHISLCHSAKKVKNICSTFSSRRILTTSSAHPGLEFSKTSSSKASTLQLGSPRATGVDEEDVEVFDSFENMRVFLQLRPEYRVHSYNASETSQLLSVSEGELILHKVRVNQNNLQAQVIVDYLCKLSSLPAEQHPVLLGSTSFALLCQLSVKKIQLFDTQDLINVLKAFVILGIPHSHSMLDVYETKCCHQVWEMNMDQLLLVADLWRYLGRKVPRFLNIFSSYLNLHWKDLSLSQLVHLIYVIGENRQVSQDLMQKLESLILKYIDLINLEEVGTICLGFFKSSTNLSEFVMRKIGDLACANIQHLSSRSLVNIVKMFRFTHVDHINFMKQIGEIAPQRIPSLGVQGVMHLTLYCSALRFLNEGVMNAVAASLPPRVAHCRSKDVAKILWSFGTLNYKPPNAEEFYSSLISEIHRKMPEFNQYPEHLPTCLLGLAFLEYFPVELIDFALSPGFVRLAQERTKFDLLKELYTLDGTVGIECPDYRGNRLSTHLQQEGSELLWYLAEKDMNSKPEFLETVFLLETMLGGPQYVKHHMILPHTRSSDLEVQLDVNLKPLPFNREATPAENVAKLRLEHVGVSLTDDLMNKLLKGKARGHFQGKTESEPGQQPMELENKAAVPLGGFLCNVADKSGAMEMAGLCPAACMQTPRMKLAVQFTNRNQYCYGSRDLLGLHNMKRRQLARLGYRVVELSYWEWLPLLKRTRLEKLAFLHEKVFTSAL

IARS2 (human) = IARS2 (human) (UniProt Q9NSE4)
TBRG4 (human) = TBRG4 (human) (UniProt Q969Z0)
C2orf56 (human) = C2orf56 (human) (UniProt Q7L592)
Chain of C2orf56 (human) (Q7L592 47-441 limits assumed): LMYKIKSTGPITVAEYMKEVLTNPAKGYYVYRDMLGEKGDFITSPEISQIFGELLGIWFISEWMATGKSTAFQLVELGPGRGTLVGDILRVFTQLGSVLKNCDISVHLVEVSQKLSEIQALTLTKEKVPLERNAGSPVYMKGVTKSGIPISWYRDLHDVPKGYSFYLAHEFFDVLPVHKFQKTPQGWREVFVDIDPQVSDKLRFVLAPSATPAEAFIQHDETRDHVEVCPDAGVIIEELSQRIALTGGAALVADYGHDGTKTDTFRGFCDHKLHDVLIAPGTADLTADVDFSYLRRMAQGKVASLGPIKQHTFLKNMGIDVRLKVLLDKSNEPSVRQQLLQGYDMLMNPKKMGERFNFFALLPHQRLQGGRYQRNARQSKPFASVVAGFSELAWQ

ACADVL (human) = ACADVL (human) (UniProt P49748)
HARS2 (human) = HARS2 (human) (UniProt P49590)
AK3 (human) = AK3 (human) (UniProt Q9UIJ7)
PPA2 (human) = PPA2 (human) (UniProt Q9H2U2)
SUCLG1 (human) = SUCLG1 (human) (UniProt P53597)
HSPE1 (human) = HSPE1 (human) (UniProt P61604)
Chain of HSPE1 (human) (P61604 2-102 limits assumed): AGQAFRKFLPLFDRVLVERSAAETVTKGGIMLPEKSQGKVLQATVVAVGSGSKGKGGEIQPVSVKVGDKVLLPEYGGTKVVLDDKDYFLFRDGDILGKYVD

ZADH2 (human) = ZADH2 (human) (UniProt Q8N4Q0)
ALDH1L2 (human) = ALDH1L2 (human) (UniProt Q3SY69)

Chain of ACO2 (human) (Q99798 28-780 limits assumed): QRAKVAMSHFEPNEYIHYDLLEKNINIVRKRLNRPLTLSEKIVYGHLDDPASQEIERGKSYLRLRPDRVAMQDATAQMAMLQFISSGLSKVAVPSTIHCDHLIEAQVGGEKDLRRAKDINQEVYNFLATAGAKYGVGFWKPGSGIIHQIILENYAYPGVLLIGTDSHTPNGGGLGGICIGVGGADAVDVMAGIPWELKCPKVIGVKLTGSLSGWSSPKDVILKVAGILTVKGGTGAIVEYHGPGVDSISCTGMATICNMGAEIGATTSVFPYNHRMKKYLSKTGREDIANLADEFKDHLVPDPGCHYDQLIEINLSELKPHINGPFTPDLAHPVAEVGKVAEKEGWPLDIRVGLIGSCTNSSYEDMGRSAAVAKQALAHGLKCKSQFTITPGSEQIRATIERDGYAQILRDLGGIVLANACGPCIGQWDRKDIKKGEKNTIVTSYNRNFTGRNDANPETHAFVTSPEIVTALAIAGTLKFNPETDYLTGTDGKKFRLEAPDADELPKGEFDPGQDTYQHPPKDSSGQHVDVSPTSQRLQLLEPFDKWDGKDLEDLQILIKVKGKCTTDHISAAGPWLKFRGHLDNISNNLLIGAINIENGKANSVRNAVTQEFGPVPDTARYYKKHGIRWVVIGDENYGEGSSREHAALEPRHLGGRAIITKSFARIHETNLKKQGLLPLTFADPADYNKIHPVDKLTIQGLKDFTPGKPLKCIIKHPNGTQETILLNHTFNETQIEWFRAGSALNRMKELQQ
Chain of PPIF (human) (P30405 30-207 limits assumed): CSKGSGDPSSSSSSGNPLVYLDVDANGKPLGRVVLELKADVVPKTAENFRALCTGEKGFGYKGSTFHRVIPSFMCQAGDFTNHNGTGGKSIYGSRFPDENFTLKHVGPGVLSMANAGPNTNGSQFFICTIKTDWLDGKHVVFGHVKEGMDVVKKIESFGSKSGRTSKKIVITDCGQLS
Chain of LYRM7 (human) (Q5U5X0 whole entry): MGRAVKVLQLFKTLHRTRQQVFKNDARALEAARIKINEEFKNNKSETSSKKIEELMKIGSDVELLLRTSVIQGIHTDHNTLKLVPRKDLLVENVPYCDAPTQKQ

For “FlagBirA-ClpP (WT) (from UniProt P06709 1-321; Q16740 57-277) (enzyme)”, the Log2 Fold change (vs control) (MPST (human)) was -4.46 log2, the Log2 Fold change (vs control) (PMPCA (human)) was -1.21 log2 and the Log2 Fold change (vs control) (ACO2 (human)) was -5.46 log2. The Log2 Fold change (vs control) (PPIF (human)) was -1.81 log2, the Log2 Fold change (vs control) (POLRMT (human)) was -2.95 log2 and the Log2 Fold change (vs control) (LYRM7 (human)) was -1.38 log2. The Log2 Fold change (vs control) (BCS1L (human)) was -0.17 log2, the Log2 Fold change (vs control) (PDPR (human)) was -4.95 log2 and the Log2 Fold change (vs control) (MRPL48 (human)) was -4.17 log2. It also gave a Log2 Fold change (vs control) (NFS1 (human)) of 0.55 log2, a Log2 Fold change (vs control) (NDUFA7 (human)) of -3.81 log2 and a Log2 Fold change (vs control) (COX5A (human)) of -2.87 log2. The Log2 Fold change (vs control) (PTPMT1 (human)) was -0.48 log2, the Log2 Fold change (vs control) (GCDH (human)) was -0.17 log2 and the Log2 Fold change (vs control) (QRSL1 (human)) was -2.9 log2. It also gave a Log2 Fold change (vs control) (ABCB10 (human)) of -0.24 log2, a Log2 Fold change (vs control) (ECHS1 (human)) of -1.49 log2 and a Log2 Fold change (vs control) (PNPT1 (human)) of 0.32 log2. It also gave a Log2 Fold change (vs control) (GBAS (human)) of -2.79 log2, a Log2 Fold change (vs control) (ACAD9 (human)) of -0.76 log2 and a Log2 Fold change (vs control) (MRPS17 (human)) of -4.25 log2. For the same substance, the Log2 Fold change (vs control) (MRPS16 (human)) was -3.81 log2, the Log2 Fold change (vs control) (SPRYD4 (human)) was -1.26 log2 and the Log2 Fold change (vs control) (MRPL21 (human)) was -4.52 log2. The Log2 Fold change (vs control) (T1MM44 (human)) was -0.52 log2, the Log2 Fold change (vs control) (HSD17B8 (human)) was -1.26 log2 and the Log2 Fold change (vs control) (GRSF1 (human)) was -6.34 log2. It also gave a Log2 Fold change (vs control) (CLYBL (human)) of -1.63 log2, a Log2 Fold change (vs control) (MRPS15 (human)) of -4.91 log2 and a Log2 Fold change (vs control) (ABHD10 (human)) of -1.53 log2. It also gave a Log2 Fold change (vs control) (MTRF1L (human)) of -3.81 log2, a Log2 Fold change (vs control) (FMC1 (human)) of -6.86 log2 and a Log2 Fold change (vs control) (MRPS28 (human)) of -1.24 log2. The Log2 Fold change (vs control) (MTHFD1L (human)) was -0.39 log2, the Log2 Fold change (vs control) (BCKDHB (human)) was -4.91 log2 and the Log2 Fold change (vs control) (NDUFS6 (human)) was -6.32 log2. The Log2 Fold change (vs control) (SUCLG2 (human)) was -3.08 log2, the Log2 Fold change (vs control) (LETM1 (human)) was -0.94 log2 and the Log2 Fold change (vs control) (MRPS6 (human)) was -4.52 log2. It also gave a Log2 Fold change (vs control) (FASTKD5 (human)) of -4.91 log2, a Log2 Fold change (vs control) (IARS2 (human)) of -2.38 log2 and a Log2 Fold change (vs control) (TBRG4 (human)) of 0.28 log2. For the same substance, the Log2 Fold change (vs control) (C2orf56 (human)) was -2.44 log2, the Log2 Fold change (vs control) (ACADVL (human)) was 0.55 log2 and the Log2 Fold change (vs control) (HARS2 (human)) was -1.3 log2. For the same substance, the Log2 Fold change (vs control) (AK3 (human)) was -1.05 log2, the Log2 Fold change (vs control) (PPA2 (human)) was -1.38 log2 and the Log2 Fold change (vs control) (SUCLG1 (human)) was -1.44 log2. The Log2 Fold change (vs control) (HSPE1 (human)) was -0.36 log2, the Log2 Fold change (vs control) (ZADH2 (human)) was -3.46 log2 and the Log2 Fold change (vs control) (ALDH1L2 (human)) was -6.04 log2.
